This is an account of results in patent US20050203026A1 (DANISCO US, published 2005).

No end group written: not given here.

One assay addresses BSA (UniProt P02769 25-607). Nature of the assay: phage ELISA, detected with anti-M13-HRP and ABTS, A405 after 30 min, n=3. (In an ELISA, binding on a coated surface is turned into a signal by an enzyme label.)
Assay [1] addresses T1, human VEGF165 (human, UniProt P15692-4 27-191).
T1 construct: Bought recombinant protein; Coated on plates (ELISA), amine-coupled to a CM5 chip (SPR) or added to HUVE cells at 10 ng/mL; also called hVEGF165; vascular endothelial growth factor
Kind of assay: SPR (BIAcore 3000), 6000 RU VEGF on CM5 chip, TNF reference lane, peptide injected; two state reaction model with conformation change. A general note: SPR reads the build-up and loss of mass on a sensor chip optically.

Assay [2] has as its target T1, human VEGF165. Kind of assay: plate binding assay: hVEGF165-coated wells, bound beta-lactamase activity measured with nitrocefin (mOD/min).
For assay [3], the target named is T1, human VEGF165. Nature of the assay: surface plasmon resonance (BIAcore), hVEGF165 coupled to a CM5 chip, BBI-VEGF injected.
Assay [4] addresses T1, human VEGF165. Nature of the assay: SPR (BIAcore 3000), VEGF165 coupled to CM5 chip, peptide injected; two state reaction model with conformation change.

T1 sequence (P15692 other isoform, or with tags, fused parts or gaps limits assumed): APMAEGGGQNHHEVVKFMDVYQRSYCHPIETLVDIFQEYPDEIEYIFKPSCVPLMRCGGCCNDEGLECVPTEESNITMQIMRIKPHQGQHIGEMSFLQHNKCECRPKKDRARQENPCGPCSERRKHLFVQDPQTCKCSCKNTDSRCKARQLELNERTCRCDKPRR
BSA, sequence (P02769 25-607 limits assumed): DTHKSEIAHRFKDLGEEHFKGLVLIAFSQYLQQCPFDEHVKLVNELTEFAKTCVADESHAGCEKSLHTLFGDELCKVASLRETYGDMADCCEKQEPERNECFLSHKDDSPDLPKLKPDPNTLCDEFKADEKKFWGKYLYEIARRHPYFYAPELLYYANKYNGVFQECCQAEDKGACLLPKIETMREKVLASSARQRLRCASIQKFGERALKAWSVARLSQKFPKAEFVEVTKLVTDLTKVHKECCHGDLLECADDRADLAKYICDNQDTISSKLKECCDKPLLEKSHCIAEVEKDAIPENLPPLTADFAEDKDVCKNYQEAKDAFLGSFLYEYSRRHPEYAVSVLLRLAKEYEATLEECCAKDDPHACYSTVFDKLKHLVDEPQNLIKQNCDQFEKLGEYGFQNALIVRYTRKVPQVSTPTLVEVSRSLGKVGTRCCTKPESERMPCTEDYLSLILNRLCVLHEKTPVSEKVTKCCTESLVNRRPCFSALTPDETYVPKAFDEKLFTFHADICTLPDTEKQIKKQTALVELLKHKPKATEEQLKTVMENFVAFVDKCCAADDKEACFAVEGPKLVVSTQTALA

As for ACYNLYGWTCGGG [SEQ ID NO 1], the binding result with BSA is given as “no binding”.

B1: CK37283 (peptide)
peptide: ACNLWPHFWCGGG
modifications: Probably cyclised by a Cys2-Cys10 disulfide, since it comes from the C7C constrained library. The patent does not say this for the synthetic peptide.
notes: Synthetic peptide from the phage panning
A word on the Kd: it is the free concentration of one partner at which half of the binding sites on the other are occupied at equilibrium, for simple one-to-one binding. The koff is the first-order rate constant of dissociation. Lower therefore signals slow dissociation. What is called kon is a measure of how fast the partners come together. Higher therefore signals fast association. B1: in the assay with human VEGF165 [1], binding was characterised by a dissociation constant (Kd) of 4.9 µM, the off-rate constant (koff) was 0.318 s⁻¹ and the kon is 12400 M⁻¹ s⁻¹.
On to ACNLWPHFWCGGG [SEQ ID NO 3], for which, in the assay with BSA, the binding result is recorded as “no binding”.

B2: BLA (enzyme)
chain: TPVSEKQLAEVVANTITPLMKAQSVPGMAVAVIYQGKPHYYTFGKADIAANKPVTPQTLFELGSISKTFTGVLGGDAIARGEISLDDAVTRYWPQLTGKQWQGIRMLDLATYTAGGLPLQVPDEVTDNASLLRFYQNWQPQWKPGTTRLYANASIGLFGALAVKPSGMPYEQAMTTRVLKPLKLDHTWINVPKAEEAHYAWGYRDGKAVRVSPGMLDAQAYGVKTNVQDMANWVMANMAPENVADASLKQGIALAQSRYWRIGSMYQGLGWEMLNWPVEANTVVEGSDSKVALAPLPVAEVNPPAPPVKASWVHKTGSTGGFGSYVAFIPEKQIGIVMLANTSYPNPARVEAAYHILEALQHHHHHH
notes: also called pCB04; pCB04 (WT)
For the molecule B2, in the assay with human VEGF165 [2], the binding result is “no binding (tested: about 40 µM)”.
As for ACTLWPSYWCGGG [SEQ ID NO 7], the binding result with BSA is given as “no binding”.
On to ACTLWPTFWCGGG [SEQ ID NO 2], for which, in the assay with BSA, the binding result is listed as “no binding”.

B3: BBI-VEGF1 (designed binder)
chain: DDESSKPCCDQCACYNLYGWTCRCSDMRLNSCHSACKSCICALSYPAQCFCVDITDFCYEPCKPSEDDKEN
notes: also called anti-VEGF BBI
With B3, the binding result in the assay with human VEGF165 [3] is “binds”.
For ACYNLYGWTCGGG (cysteine pairing not given here; also: biotinylated, site not given here, Synthetic peptide (FMOC, SynPep)) [biotinylated peptide CK37281], in the assay with human VEGF165 [4], binding was characterised by a dissociation constant (Kd) of 1.92 µM, the koff was 0.0122 s⁻¹ and the kon came to 2840 M⁻¹ s⁻¹.
Turning to ACSLWPAFWCGGG [SEQ ID NO 4], the binding result with BSA is given as “no binding”.
